Data published in patent US8338155B2, “Modified mevalonate kinase with reduced feedback inhibition” (DSM IP Assets B.V., priority 2004, dated 2012).

Assays:
[1] = test system: Saccharomyces cerevisiae mevalonate kinase; assay: Mevalonate kinase activity assay (NADH consumption, photometric at 340 nm): specific activity; format: biochemical; settings: purified His6-tagged enzyme; WT = non-mutated His6-tagged mevalonate kinase
Source text: Methods for measuring specific activity are known to the person skilled in the art. The specific activity may for instance be determined via measuring the consumption of NADH. Suitable conditions for such measurement may be those as e.g. outlined in Example 1 except that, typically, saturating substrate concentrations are used or, in the case of enzyme inhibition at high substrate concentrations, at substrate concentrations that provide maximal activity under the particular experimental conditions.
(§1) For preparing mevalonate as substrate, 130 mg of DL-mevalonate lactone (FLUKA Chemie AG, Buchs, Switzerland) were dissolved in 5.5 ml of 0.2 M KOH and incubated for 15 min at 50° C. The solution was then adjusted to pH 7.0 by addition of 0.1 M HCl at room temperature (RT). Except if stated otherwise, the assay mixture consisted of 100 mM K2BPO/KH2PO4 (pH 7.0), 1 mM ATP, 2 mM MgCl2, 1 mM mevalonate, 0.5 mM phosphoenolpyruvate (PEP), 0.32 mM NADH, 20 U/ml pyruvate kinase and 27 U/ml lactate dehydrogenase (Sigma-Aldrich, St. Louis, Mo., USA). Inhibition was tested by adding 1 μM FPP.
(§2) Purification of His6-tagged mevalonate kinase and of His6-tagged mevalonate kinase mutant enzymes was done with Ni-NTA chromatography using the QIAexpress system/reagents of Qiagen. Upon addition of purified (His6-tagged) mevalonate kinase, enzymatic reaction reflected by consumption of NADH was followed by photometric measurement at 340 nm. One unit (1 U) of mevalonate kinase activity catalyzes the phosphorylation of 1 μmol of mevalonate per min.
(§3) Preparation of Mevalonate and Activity Measurement was Exactly Performed as Described in Example 1. 1 μM FPP was used for inhibition assays performed with the Saccharomyces cerevisiae mevalonate kinase wild-type enzyme and its mutants.

[2] = test system: Saccharomyces cerevisiae mevalonate kinase; assay: Inhibition of mevalonate kinase activity by the feedback inhibitor FPP: feedback resistance; format: biochemical; settings: 1 μM FPP; % resistance=100·((d/c)−(b/a))/(1−(b/a)) relative to wild-type
Protocol: “Feedback resistance” as used herein may be any increase in resistance to “feedback inhibition” (as defined above). Feedback resistance can be analyzed in different ways known to those skilled in the art. An appropriate example of such an analysis is shortly described herein: mevalonate kinase activity is measured in an activity assay at non-saturating concentrations of for instance ATP (or of another phosphate donor) and mevalonate (or mevalonate analogue), i.e., at for instance ATP (or phosphate donor) and mevalonate (or mevalonate analogue) concentrations around which the reaction rate is sensitive to changes of these substrate concentrations, e.g., at concentrations around the respective Km values of the enzyme under investigation for these substrates. The activities of both wild-type mevalonate kinase and of a variant/mutant of this enzyme are measured under otherwise identical conditions both in the absence and presence of a relevant concentration of a feedback inhibitor, i.e., at a concentration of feedback inhibitor affording significant inhibition of the wild-type mevalonate kinase. If the extent of inhibition (e.g., % inhibition) by the feedback inhibitor is lower for the mutant than for the wild-type enzyme, then the mutant is feedback resistant in the context of the present patent application. Once a feedback resistant variant/mutant has been identified, the same procedure as described above may be applied to identify further improved mutants, i.e., mutants that are even more feedback resistant. Feedback resistance (%) is calculated as follows: if (a) and (b) are the measured mevalonate kinase activities of the wild-type enzyme in the absence and presence, respectively, of the feedback inhibitor (e.g., FPP), and if (c) and (d) are the measured mevalonate kinase activities of the mutant enzyme in the absence and presence, respectively, of the same feedback inhibitor, then % feedback resistance is: % resistance=100·((d/c)−(b/a))/(1−(b/a))
as §1, §2, §3
Feedback resistance (%) was calculated according to the following formula: % resistance=100·((d/c)−(b/a))/(1−(b/a)) wherein (a) and (b) refer to the measured mevalonate kinase activities of the wild-type enzyme in the absence and presence, respectively, and (c) and (d) refer to the measured mevalonate kinase activities of the mutant enzyme in the absence and presence, respectively, of FPP. The results are shown in Tab. 1, wherein WT represents the non-mutated mevalonate kinase containing a His6-tag (SEQ ID NO:3).

[3] = test system: Paracoccus zeaxanthinifaciens strain R114; assay: Coenzyme Q10 production in fed-batch cultivation of recombinant strains; format: cell-based; settings: 70 h, strain R114 with plasmid pBBR-K-mev-op-(S. cerevisiae mvk-N66K/I152M)-PcrtE-ddsAwt vs pBBR-K-mev-op-(S. cerevisiae mvk)-PcrtE-ddsAwt
Source text: To test the in vivo effect of mutation N66K/I152M on the production of coenzyme Q10, the DNA encoding S. cerevisiae mevalonate kinase mutant N66K/1152M (SEQ ID NO:5) is introduced into Paracoccus zeaxanthinifaciens and compared to the CoQ10 production in P. zeaxanthinifaciens carrying the DNA encoding the wild-type S. cerevisiae mevalonate kinase (SEQ ID NO:2).
Plasmids according to pBBR-K-mev-op-R114-PcrtE-ddsAwt, are constructed wherein the mevalonate operon, including its promoter region, from P. zeaxanthinifaciens R114 (see above) is replaced by either the DNA encoding the wild-type S. cerevisiae mevalonate kinase (SEQ ID NO:2) resulting in pBBR-K-mev-op-(S. cerevisiae mvk)-PcrtE-ddsAwt or the DNA encoding S. cerevisiae mevalonate kinase mutant N66K/1152M (SEQ ID NO:5) resulting in pBBR-K-mev-op-(S. cerevisiae mvk-N66K/I152M)-PcrtE-ddsAwt. […]
Coenzyme Q10 production is tested in fed-batch cultivations of P. zeaxanthinifaciens strains R114/pBBR-K-mev-opR114-PcrtE-ddsAwt, R114/pBBR-K-mev-op-(S. cerevisiae mvk)-PcrtE-ddsAwt and R114/pBBR-K-mev-op-(S. cerevisiae mvk-N66K/1152M)-PcrtE-ddsAwt. […] The precultures are incubated at 28° C. with shaking at 250 rpm for 28 h, after which time the optical density at 660 nm (OD660) is between 14 and 22 absorbance units, depending on the strain used. […]

B1: N66K, I152M: Saccharomyces cerevisiae mevalonate kinase mutant with substitutions N66K and I152M (encoding DNA SEQ ID NO:5) (protein, listed as Saccharomyces cerevisiae)
chain: MSLPFLTSAPGKVIIFGEHSAVYNKPAVAASVSALRTYLLISESSAPDTIELDFPDISFNHKWSIKDFNAITEDQVNSQKLAKAQQATDGLSQELVSLLDPLLAQLSESFHYHAAFCFLYMFVCLCPHAKNIKFSLKSTLPIGAGLGSSASMSVSLALAMAYLGGLIGSNDLEKLSENDKHIVNQWAFIGEKCIHGTPSGIDNAVATYGNALLFEKDSHNGTINTNNFKFLDDFPAIPMILTYTRIPRSTKDLVARVRVLVTEKFPEVMKPILDAMGECALQGLEIMTKLSKCKGTDDEAVETNNELYEQLLELIRINHGLLVSIGVSHPGLELIKNLSDDLRIGSTKLTGAGGGGCSLTLLRRDITQEQIDSFKKKLQDDFSYETFETDLGGTGCCLLSAKNLNKDLKIKSLVFQLFENKTTTKQQIDDLLLPGNTNLPWTS
Specific activity (% of wild-type) [1]: 148 % of wild-type
Feedback resistance (%) [2]: 67%
final concentration of coenzyme Q10 produced, higher than strain carrying wild-type S. cerevisiae mvk [3]: at least 5%
